Test results published in article PMC12114846, “Interleukin-15Rα-Sushi-Fc Fusion Protein Co-Hitchhikes Interleukin-15 and Pheophorbide A for Cancer Photoimmunotherapy” (Pharmaceutics, 2025).

Key:
[1] = biological target: recombinant interleukin-15Rα-sushi-Fc fusion protein (human)
[2] = biological target: commercial whole IL-15Rα fusion protein (rIL-15Rα-Fc) (UniProt Q13261); experiment: not stated; affinity shown in Figure S3A,B; method not told in the main text
[3] = biological target: recombinant interleukin-15Rα-sushi-Fc fusion protein (human); experiment: as above
[4] = biological target: recombinant interleukin-15Rα-sushi-Fc fusion protein (human); experiment: pull-down; rILR-Fc/PhA NPs incubated with rIL-15 at 37 °C for 30 min in PBS; nanoparticles adsorbed on a Protein A agarose column; free rIL-15 quantified by sandwich ELISA
[5] = biological target: commercial whole IL-15Rα fusion protein (rIL-15Rα-Fc) (UniProt Q13261)
[6] = biological target: recombinant interleukin-15Rα-sushi-Fc fusion protein (human); remark: listed apart in the source

Sequence of recombinant wild-type IL-15 (P40933 49-162): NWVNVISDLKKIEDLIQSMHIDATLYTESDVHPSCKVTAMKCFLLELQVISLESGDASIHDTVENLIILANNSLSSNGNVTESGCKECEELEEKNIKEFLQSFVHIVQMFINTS
Sequence of commercial whole IL-15Rα fusion protein (rIL-15Rα-Fc) (Q13261 31-205): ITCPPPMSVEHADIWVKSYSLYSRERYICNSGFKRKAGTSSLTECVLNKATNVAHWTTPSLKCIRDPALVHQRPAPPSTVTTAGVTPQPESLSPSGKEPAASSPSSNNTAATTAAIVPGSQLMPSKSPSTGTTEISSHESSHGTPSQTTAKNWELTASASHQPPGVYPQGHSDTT

| serum elimination half-life (t1/2) of rIL-15 in mice after i.v. injection of rILR-Fc/PhA/rIL-15 NPs (free rIL-15: 20.24 min) [1] | affinity [2] | affinity [3] | encapsulation efficiency (percent of rIL-15 held by the rILR-Fc/PhA/rIL-15 NPs) [4] | molar ratio of rIL-15 to rILR-Fc in the nanoparticles [4] | EC50 of M-07e cell proliferation, rIL-15-wt pre-associated with rIL-15Rα-Fc (rIL-15-wt alone: 3.26 nM) [5] | EC50 of M-07e cell proliferation, rIL-15-wt pre-associated with rILR-Fc (rIL-15-wt alone: 3.26 nM) [6] | Substance |
| --- | --- | --- | --- | --- | --- | --- | --- |
| 39.4 min | 0.115 nM | 0.24 nM | 99.5% | 0.81 |  |  | recombinant IL-15 (N72D-mutated human IL-15) (ligand) |
|  |  |  |  |  | 1.65 nM | 1.62 nM | recombinant wild-type IL-15 (from UniProt P40933 49-162) (ligand) |
